These are literature values, as cited in US20220031761A1, “COMPOSITIONS FOR PROMOTING SKIN REGENERATION, SKIN REJUVENATION, AND WOUND HEALING AND METHODS FOR PREPARATION AND USE THEREOF” (priority 2018, published 2022).

The conditions of the series: in vivo.

Regarding “HGF: growth factor secreted by mesenchymal cells, eluted by placental and umbilical tissue”, the “half-life of HGF” value is “approximately 3 hours”.
